Results on 3 substances are retold here after patent publication US20100162415A1.

What all share (experiment): cell-based or functional assay
For assay [1], the target named is hum-X VEGF (mouse VEGF-A with 10 residues replaced by the human residues).
In assay [2] the target is human VEGF-A (huVEGF165) (human) (UniProt P15692).
Assay [3] has as its target murine VEGF-A (muVEGF164) (mouse) (UniProt Q00731).
Sequence of UniProt Q00731 (Q00731 other isoform, or with tags, fused parts or gaps): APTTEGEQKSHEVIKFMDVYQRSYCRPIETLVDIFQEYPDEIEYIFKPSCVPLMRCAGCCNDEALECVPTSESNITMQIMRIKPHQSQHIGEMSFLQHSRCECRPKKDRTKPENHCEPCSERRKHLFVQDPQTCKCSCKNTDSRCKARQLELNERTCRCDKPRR

Sequence of UniProt P15692 (P15692 other isoform, or with tags, fused parts or gaps): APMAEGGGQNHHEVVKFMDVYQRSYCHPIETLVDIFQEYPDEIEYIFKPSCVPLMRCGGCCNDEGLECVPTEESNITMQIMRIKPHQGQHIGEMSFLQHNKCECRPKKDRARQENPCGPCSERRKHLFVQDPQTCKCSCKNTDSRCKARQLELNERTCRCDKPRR

Consider G6-31 (antibody), for which the IC50, inhibition of VEGF-stimulated bovine retinal capillary endothelial cell proliferation in assay [1] came out at 0.0061 µg/mL.

Regarding Y0317 (antibody), the IC50, inhibition of VEGF-stimulated bovine retinal capillary endothelial cell proliferation in assay [1] is 0.0027 µg/mL; in assay [2], 0.00075 µg/mL.

With B20-4.1 (antibody), the values for the IC50, inhibition of VEGF-stimulated bovine retinal capillary endothelial cell proliferation in assay [3], in assay [1] and in assay [2] were 0.5 µg/mL, 0.076 µg/mL and 0.052 µg/mL, respectively.
